Test results published in US20140302075A1.

Biological target: human TLR4 receptor (expressed on HEK-Blue TLR4 reporter cells) (human) (UniProt O00206)
Test: cell-based or functional assay

Sequence of UniProt O00206 (O00206 24-839): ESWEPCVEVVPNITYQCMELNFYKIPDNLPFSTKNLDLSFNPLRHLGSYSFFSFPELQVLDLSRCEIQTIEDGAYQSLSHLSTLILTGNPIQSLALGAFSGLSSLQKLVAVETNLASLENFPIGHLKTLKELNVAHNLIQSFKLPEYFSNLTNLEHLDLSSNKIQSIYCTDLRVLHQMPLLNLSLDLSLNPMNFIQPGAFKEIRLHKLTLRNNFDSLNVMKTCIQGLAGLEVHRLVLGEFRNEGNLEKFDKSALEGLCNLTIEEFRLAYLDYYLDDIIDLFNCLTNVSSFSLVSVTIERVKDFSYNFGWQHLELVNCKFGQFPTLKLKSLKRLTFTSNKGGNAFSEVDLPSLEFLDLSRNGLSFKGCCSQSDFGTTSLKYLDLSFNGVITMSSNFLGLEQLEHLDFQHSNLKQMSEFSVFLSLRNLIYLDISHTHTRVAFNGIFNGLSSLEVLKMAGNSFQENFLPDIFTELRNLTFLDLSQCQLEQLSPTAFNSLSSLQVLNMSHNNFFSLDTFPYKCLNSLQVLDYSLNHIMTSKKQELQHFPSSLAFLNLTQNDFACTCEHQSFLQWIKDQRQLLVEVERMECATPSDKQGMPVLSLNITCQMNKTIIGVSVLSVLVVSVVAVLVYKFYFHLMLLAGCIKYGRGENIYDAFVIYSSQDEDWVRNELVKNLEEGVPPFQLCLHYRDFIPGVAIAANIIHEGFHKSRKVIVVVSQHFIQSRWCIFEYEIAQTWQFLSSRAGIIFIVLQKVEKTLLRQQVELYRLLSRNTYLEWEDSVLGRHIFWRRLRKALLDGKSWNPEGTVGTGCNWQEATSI

For “AspRS1^N1 (C76S) (amino acids 1-154 of human aspartyl-tRNA synthetase with Cys76 to Ser, C-terminal V5His tag) (ligand)”, the Fold increase in activity over AspRS1^N1 (TLR4 Activity; SEAP reporter, HEK-Blue TLR4 cells) was 3.6 fold.
